# Test results from US20120039802A1 (published 2012).
# How the values were obtained:
# [1] = molecular target: T1, cMet-Fc fusion protein (extracellular domain of the cMet receptor expressed as an Fc-fusion protein) (human, UniProt P08581 25-932); experiment: phage ELISA on cMet-Fc, competitor HGF 100 ng/mL
# T1 construct: extracellular domain; also called soluble cMet-Fc-fusion protein; soluble cMet receptor; not shown: Fc part
# In short: (§1)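 Plates coated with 0.5 μg/mL cMet-Fc, with TRAIL-Fc as background, then blocked with 3% BSA. Bound phage detected with HRP anti-M13 antibody.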
# [2] = molecular target: T1, cMet-Fc fusion protein (extracellular …); experiment: phage ELISA on cMet-Fc, competitor HGF 500 ng/mL
# In short: as §1
# [3] = molecular target: T1, cMet-Fc fusion protein (extracellular …); experiment: phage ELISA, cMet-Fc vs TRAIL-Fc
# In short: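 Plates coated overnight at 4 C with 0.5 μg/mL cMet-Fc, or TRAIL-Fc as background, were blocked with 3% BSA in PBST. Peptide-displaying phage were bound 2 h at room temperature. Bound phage were detected with HRP-conjugated anti-M13 antibody.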
# [4] = molecular target: T2, human cMet expressed on 3T3 cells (human, UniProt P08581 25-1390); experiment: whole cell phage ELISA, 3T3 human cMet vs 3T3
# T2 construct: whole, on cells; cells fixed with glutaraldehyde; also called cell surface-expressed human cMet; 3T3 cells that over-express human cMet
# T2 sequence (P08581 25-1390): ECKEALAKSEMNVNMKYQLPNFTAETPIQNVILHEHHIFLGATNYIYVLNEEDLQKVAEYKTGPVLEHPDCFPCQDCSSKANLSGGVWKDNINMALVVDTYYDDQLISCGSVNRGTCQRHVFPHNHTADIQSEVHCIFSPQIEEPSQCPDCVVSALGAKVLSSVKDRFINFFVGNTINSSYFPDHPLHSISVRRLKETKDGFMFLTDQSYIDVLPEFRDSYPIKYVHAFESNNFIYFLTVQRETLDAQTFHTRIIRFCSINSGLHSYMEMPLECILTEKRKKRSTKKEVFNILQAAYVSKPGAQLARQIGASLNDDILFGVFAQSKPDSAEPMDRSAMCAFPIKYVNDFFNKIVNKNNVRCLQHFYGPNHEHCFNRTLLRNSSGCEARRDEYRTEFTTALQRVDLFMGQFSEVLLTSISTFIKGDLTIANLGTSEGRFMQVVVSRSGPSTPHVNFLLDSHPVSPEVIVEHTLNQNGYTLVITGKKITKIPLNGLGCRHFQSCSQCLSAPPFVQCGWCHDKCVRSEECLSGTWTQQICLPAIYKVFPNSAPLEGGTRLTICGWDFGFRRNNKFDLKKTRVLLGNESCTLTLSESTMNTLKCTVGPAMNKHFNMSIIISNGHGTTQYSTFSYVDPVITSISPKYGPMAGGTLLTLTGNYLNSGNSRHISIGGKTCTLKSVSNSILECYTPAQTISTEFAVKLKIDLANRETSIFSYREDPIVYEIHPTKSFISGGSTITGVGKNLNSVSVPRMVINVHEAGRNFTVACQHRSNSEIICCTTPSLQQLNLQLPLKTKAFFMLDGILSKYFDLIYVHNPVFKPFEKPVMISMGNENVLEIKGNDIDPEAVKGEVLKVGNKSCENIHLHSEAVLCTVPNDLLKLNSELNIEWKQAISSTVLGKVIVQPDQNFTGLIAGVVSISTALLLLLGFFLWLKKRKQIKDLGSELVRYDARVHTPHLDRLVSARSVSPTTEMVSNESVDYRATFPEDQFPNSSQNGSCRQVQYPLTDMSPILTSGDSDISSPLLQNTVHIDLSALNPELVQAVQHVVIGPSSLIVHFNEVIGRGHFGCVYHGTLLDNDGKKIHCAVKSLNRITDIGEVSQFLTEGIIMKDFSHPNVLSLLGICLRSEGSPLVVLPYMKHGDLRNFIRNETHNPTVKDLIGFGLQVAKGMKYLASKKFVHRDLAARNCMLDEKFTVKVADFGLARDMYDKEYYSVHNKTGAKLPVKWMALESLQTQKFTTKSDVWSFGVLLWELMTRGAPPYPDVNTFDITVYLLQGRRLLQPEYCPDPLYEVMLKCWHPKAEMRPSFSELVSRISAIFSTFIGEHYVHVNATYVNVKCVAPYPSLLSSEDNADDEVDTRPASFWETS
# In short: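 3T3 cells over-expressing human cMet, compared against parental 3T3, seeded at 10⁵ per well and fixed with 0.1% glutaraldehyde for 12 min at 37 C. Blocked peptide-displaying phage bound for 1 h at room temperature. After PBST washes, bound phage was detected with HRP-conjugated anti-M13 antibody.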
# T1 sequence (P08581 25-932): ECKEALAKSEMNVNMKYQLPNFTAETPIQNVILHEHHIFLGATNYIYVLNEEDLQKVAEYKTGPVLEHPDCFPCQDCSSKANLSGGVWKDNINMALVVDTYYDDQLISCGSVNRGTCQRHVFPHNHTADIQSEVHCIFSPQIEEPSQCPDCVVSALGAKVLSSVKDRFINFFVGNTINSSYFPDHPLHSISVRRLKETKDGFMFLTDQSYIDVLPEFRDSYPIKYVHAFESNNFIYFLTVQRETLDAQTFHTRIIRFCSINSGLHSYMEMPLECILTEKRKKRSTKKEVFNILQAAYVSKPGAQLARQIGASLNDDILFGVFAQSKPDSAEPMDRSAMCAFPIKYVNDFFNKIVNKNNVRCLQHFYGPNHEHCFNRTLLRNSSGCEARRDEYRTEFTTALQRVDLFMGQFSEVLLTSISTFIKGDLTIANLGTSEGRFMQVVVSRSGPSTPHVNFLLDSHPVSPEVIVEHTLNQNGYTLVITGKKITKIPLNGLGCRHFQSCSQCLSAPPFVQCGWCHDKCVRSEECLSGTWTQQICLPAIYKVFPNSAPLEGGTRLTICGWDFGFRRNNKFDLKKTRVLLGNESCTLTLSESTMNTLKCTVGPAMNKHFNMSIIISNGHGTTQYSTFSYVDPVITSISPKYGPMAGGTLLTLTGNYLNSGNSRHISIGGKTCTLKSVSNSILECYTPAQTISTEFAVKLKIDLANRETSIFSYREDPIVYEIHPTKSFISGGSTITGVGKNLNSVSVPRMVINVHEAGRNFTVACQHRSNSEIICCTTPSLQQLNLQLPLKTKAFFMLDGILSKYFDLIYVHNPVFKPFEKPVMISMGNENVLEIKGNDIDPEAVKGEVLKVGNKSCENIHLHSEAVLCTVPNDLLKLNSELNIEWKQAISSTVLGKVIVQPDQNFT
Binder,% of binding in the absence of HGF [1],% of binding in the absence of HGF [2],Protein ELISA (fold over background) [3],WC ELISA (fold over background) [4]
GSQQICDRKEYRFQACLSDAP [443-H10 peptide-displaying phage (SEQ ID NO: 371)],124%,143%,3.4 fold,1.4 fold
GSTMSCWRWGRDAYSCNQMAP [557-A12 peptide-displaying phage (SEQ ID NO: 372)],87%,62%,4.6 fold,1.37 fold
AGWGWCSGPPMFMCTEYGT [551-A05 peptide-displaying phage (SEQ ID NO: 099)],68%,42%,4 fold,1.3 fold
GSQNNCEYGSRGSSFCLAMAP [465-C06 peptide-displaying phage (SEQ ID NO: 377)],184%,104%,6.4 fold,1.23 fold
GSSQICAVYLDDTHNCERHAP [465-A03 peptide-displaying phage (SEQ ID NO: 373)],33%,17%,4 fold,1.3 fold
AGNWICNLSEMRCYPKGT [456-E04 peptide-displaying phage (SEQ ID NO: 013)],82%,81%,3.9 fold,1.4 fold
GSFTACNKTSTTRQPCNPYAP [451-B12 peptide-displaying phage (SEQ ID NO: 384)],61%,27%,3.1 fold,1.37 fold
GSELFCFYHHQGYEGCDVLAP [465-B07 peptide-displaying phage (SEQ ID NO: 385)],111%,79%,4.8 fold,1.27 fold
GSEFECTGWPEFRCYEYAP [548-C10 peptide-displaying phage (SEQ ID NO: 100)],69%,57%,8.4 fold,1.2 fold
AGAFFCSGPPTFMCSLYGT [550-G07 peptide-displaying phage (SEQ ID NO: 098)],63%,36%,6.2 fold,1.27 fold
GSFWNCTTDLGAMSDCGFFAP [445-E07 peptide-displaying phage (SEQ ID NO: 383)],82%,64%,3.1 fold,1.37 fold
GSILYCINRNDPQCPYTAP [465-C10 peptide-displaying phage (SEQ ID NO: 101)],95%,71%,3 fold,1.27 fold
GDLLVCKFDDKFWTETCEWADP [549-G05 peptide-displaying phage (SEQ ID NO: 392)],28%,21%,23.7 fold,1.47 fold
GDDFHCEFIDDYQSEICYFNDP [333-C03 peptide-displaying phage (SEQ ID NO: 391)],52%,43%,12.4 fold,1.37 fold
GSSARCDELINDFHSCLVMAP [445-E06 peptide-displaying phage (SEQ ID NO: 375)],83%,73%,4.3 fold,1.33 fold
GSRFHCWQGDLMQTYCMPMAP [452-A03 peptide-displaying phage (SEQ ID NO: 376)],140%,112%,3 fold,1.3 fold
AGGFACGPPWDICWMFGT [573-F04 peptide-displaying phage (SEQ ID NO: 011)],76%,71%,5.6 fold,1.3 fold

Binder,% of binding in the absence of HGF [1],% of binding in the absence of HGF [2],Protein ELISA (fold over background) [3],WC ELISA (fold over background) [4]
AGAWNCEYPTFICEWQGA [570-E07 peptide-displaying phage (SEQ ID NO: 012)],81%,71%,4.5 fold,1.27 fold
GSSHCNQMITPWQNCGMRAP [446-E12 peptide-displaying phage (SEQ ID NO: 374)],73%,83%,3.3 fold,1.37 fold
GSLYRCLGEASPTPPCAYEAP [445-G12 peptide-displaying phage (SEQ ID NO: 380)],85%,52%,4 fold,1.37 fold
GDYDYCDFDLETYIPECHSYDP [546-G02 peptide-displaying phage (SEQ ID NO: 390)],32%,19%,16.1 fold,1.27 fold
GSAGWCYTMNYVDQLCTYMAP [445-E11 peptide-displaying phage (SEQ ID NO: 387)],69%,79%,3.7 fold,1.43 fold
GSTKVCHEKWNQLFCHNQAP [549-G01 peptide-displaying phage (SEQ ID NO: 368)],62%,18%,7 fold,1.27 fold
GSFAPCGWPSFAIDCIAEAP [545-C11 peptide-displaying phage (SEQ ID NO: 367)],77%,50%,7.7 fold,1.3 fold
GSDMNCTVLAQDQIFCFREAP [451-C06 peptide-displaying phage (SEQ ID NO: 386)],108%,86%,3 fold,1.37 fold
GSGMGCHQVNISTGDCAEDAP [442-E03 peptide-displaying phage (SEQ ID NO: 381)],130%,81%,3.9 fold,1.43 fold
GDASWCDENSPAAWFYCELWDP [551-D02 peptide-displaying phage (SEQ ID NO: 394)],91%,70%,13.4 fold,1.37 fold
AGDFICQGPPSFVCTNIGT [550-A08 peptide-displaying phage (SEQ ID NO: 097)],52%,51%,8.4 fold,1.27 fold
GSMNMCDTTDEISPTCHPSAP [441-H01 peptide-displaying phage (SEQ ID NO: 378)],91%,69%,3.6 fold,1.4 fold
GDSYNCSWDSKTFEVTCLYADP [546-B01 peptide-displaying phage (SEQ ID NO: 393)],95%,77%,8.4 fold,1.2 fold
GSMLGCLFEHQNKYDCYVLAP [443-D04 peptide-displaying phage (SEQ ID NO: 379)],69%,73%,3.2 fold,1.43 fold
GSFFPCWRIDRFGYCHANAP [551-H10 peptide-displaying phage (SEQ ID NO: 370)],88%,49%,13.3 fold,1.87 fold
GSGDPCSPGPSINGHCSVMAP [453-A05 peptide-displaying phage (SEQ ID NO: 382)],51%,28%,4.5 fold,1.33 fold
